T1: TIA1 WT (Homo sapiens, UniProt P31483 1-386)
T1 sequence: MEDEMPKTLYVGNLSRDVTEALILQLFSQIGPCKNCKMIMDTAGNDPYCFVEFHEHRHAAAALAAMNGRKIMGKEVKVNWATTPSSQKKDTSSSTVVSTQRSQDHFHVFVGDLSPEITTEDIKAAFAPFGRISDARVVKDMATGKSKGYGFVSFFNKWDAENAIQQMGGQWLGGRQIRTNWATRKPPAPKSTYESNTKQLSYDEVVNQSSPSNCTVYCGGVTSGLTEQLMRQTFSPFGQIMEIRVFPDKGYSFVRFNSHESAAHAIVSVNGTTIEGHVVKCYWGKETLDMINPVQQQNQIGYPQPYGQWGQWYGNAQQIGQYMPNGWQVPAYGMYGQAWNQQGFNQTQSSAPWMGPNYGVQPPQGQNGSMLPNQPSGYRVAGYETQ

B1: Bio-A90 (ssRNA)
RNA: GCCUUUCAUCUCUAACUGCGAAAAAAAAAAAAAAAAAAAAAAAAAAAAAAAAAAAAAAAAAAAAAAAAAAAAAAAAAAAAAAAAAAAAAAAAAAAAAAAAAAAAAAAAAA

Key:
Experiment in all cases: EMSA
[1] = target: T1, TIA1 WT
[2] = target: PABPC1 K512R (Homo sapiens, UniProt P11940 1-636, K512R)
PABPC1 K512R, sequence (P11940 whole entry K512R): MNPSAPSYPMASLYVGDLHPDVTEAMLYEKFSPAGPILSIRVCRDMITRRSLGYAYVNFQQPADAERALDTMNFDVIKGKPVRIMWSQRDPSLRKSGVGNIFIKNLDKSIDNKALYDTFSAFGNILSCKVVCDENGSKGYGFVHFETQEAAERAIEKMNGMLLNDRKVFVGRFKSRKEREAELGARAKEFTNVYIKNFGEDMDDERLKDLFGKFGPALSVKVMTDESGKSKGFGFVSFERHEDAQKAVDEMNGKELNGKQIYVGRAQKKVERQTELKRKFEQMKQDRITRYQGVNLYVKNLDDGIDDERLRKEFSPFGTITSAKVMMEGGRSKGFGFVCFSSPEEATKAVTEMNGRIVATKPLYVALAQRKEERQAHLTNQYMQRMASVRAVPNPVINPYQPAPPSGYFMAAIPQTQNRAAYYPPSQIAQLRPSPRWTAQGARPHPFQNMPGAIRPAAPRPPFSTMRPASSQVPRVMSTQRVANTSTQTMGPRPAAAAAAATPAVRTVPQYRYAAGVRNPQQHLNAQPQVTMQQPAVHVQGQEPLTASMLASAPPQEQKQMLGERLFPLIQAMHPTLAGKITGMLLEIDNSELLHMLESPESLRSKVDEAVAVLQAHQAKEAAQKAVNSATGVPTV

[3] = target: PABPC1 WT (Homo sapiens, UniProt P11940 1-636)
PABPC1 WT, sequence (P11940 whole entry): as the sequence (P11940 whole entry K512R) above, with R512K counted along it

Binder | binding result [1] | binding result [2] | binding result [3]
CUUUUUUUUUUUUUUUUUUUUUUUUG (ssRNA) [Bio-polyU] | binds |  | 
B1 |  | binds | binds
